We go through 9 molecules from patent publication US20140087995A1 (published 2014).

T1: human calcitonin receptor (human, UniProt P30988 25-474)
T1 sequence (looked up): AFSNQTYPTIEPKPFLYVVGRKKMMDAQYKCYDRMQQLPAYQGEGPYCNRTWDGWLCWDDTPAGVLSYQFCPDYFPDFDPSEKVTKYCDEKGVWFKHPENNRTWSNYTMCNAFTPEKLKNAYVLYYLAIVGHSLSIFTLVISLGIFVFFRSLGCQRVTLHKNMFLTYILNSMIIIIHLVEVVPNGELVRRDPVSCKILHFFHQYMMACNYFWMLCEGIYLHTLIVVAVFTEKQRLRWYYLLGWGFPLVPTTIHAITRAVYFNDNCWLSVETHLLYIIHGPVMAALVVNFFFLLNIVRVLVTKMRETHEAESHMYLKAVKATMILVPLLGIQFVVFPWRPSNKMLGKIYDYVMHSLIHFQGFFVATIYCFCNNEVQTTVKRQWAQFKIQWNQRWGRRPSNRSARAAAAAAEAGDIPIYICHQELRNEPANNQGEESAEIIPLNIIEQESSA

B1: N^ε1-[(4S)-4-carboxy-4-(19-carboxynonadecanoylamino)butanoyl]-[Glu14,Arg17,Pro21,Pro27,His35]-h-amylin (peptide)
peptide: K([γGlu-C20 diacid])CNTATCATQRLAEFLRHSSPNFGAIPSSTNVGSHTY-NH2
modifications: disulfide 2-7; N-terminus assumed
SMILES: CC[C@H](C)[C@H](NC(=O)[C@H](C)NC(=O)CNC(=O)[C@H](Cc1ccccc1)NC(=O)[C@H](CC(N)=O)NC(=O)[C@@H]1CCCN1C(=O)[C@H](CO)NC(=O)[C@H](CO)NC(=O)[C@H](Cc1c[nH]cn1)NC(=O)[C@H](CCCNC(=N)N)NC(=O)[C@H](CC(C)C)NC(=O)[C@H](Cc1ccccc1)NC(=O)[C@H](CCC(=O)O)NC(=O)[C@H](C)NC(=O)[C@H](CC(C)C)NC(=O)[C@H](CCCNC(=N)N)NC(=O)[C@H](CCC(N)=O)NC(=O)[C@@H](NC(=O)[C@H](C)NC(=O)[C@@H]1CSSC[C@H](NC(=O)[C@@H](N)CCCCNC(=O)CC[C@H](NC(=O)CCCCCCCCCCCCCCCCCCC(=O)O)C(=O)O)C(=O)N[C@@H](CC(N)=O)C(=O)N[C@@H]([C@@H](C)O)C(=O)N[C@@H](C)C(=O)N[C@@H]([C@@H](C)O)C(=O)N1)[C@@H](C)O)C(=O)N1CCC[C@H]1C(=O)N[C@@H](CO)C(=O)N[C@@H](CO)C(=O)N[C@H](C(=O)N[C@@H](CC(N)=O)C(=O)N[C@H](C(=O)NCC(=O)N[C@@H](CO)C(=O)N[C@@H](Cc1c[nH]cn1)C(=O)N[C@H](C(=O)N[C@@H](Cc1ccc(O)cc1)C(N)=O)[C@@H](C)O)C(C)C)[C@@H](C)O
B2: N^ε1-[(4S)-4-carboxy-4-[[(4S)-4-carboxy-4-(19-carboxynonadecanoylamino)butanoyl]amino]butanoyl]-[His14,Arg17,Pro21,Pro27]-h-amylin (peptide)
peptide: K([γGlu-γGlu-C20 diacid])CNTATCATQRLAHFLRHSSPNFGAIPSSTNVGSNTY-NH2
modifications: disulfide 2-7; N-terminus assumed
SMILES: CC[C@H](C)[C@H](NC(=O)[C@H](C)NC(=O)CNC(=O)[C@H](Cc1ccccc1)NC(=O)[C@H](CC(N)=O)NC(=O)[C@@H]1CCCN1C(=O)[C@H](CO)NC(=O)[C@H](CO)NC(=O)[C@H](Cc1c[nH]cn1)NC(=O)[C@H](CCCNC(=N)N)NC(=O)[C@H](CC(C)C)NC(=O)[C@H](Cc1ccccc1)NC(=O)[C@H](Cc1c[nH]cn1)NC(=O)[C@H](C)NC(=O)[C@H](CC(C)C)NC(=O)[C@H](CCCNC(=N)N)NC(=O)[C@H](CCC(N)=O)NC(=O)[C@@H](NC(=O)[C@H](C)NC(=O)[C@@H]1CSSC[C@H](NC(=O)[C@@H](N)CCCCNC(=O)CC[C@H](NC(=O)CC[C@H](NC(=O)CCCCCCCCCCCCCCCCCCC(=O)O)C(=O)O)C(=O)O)C(=O)N[C@@H](CC(N)=O)C(=O)N[C@@H]([C@@H](C)O)C(=O)N[C@@H](C)C(=O)N[C@@H]([C@@H](C)O)C(=O)N1)[C@@H](C)O)C(=O)N1CCC[C@H]1C(=O)N[C@@H](CO)C(=O)N[C@@H](CO)C(=O)N[C@H](C(=O)N[C@@H](CC(N)=O)C(=O)N[C@H](C(=O)NCC(=O)N[C@@H](CO)C(=O)N[C@@H](CC(N)=O)C(=O)N[C@H](C(=O)N[C@@H](Cc1ccc(O)cc1)C(N)=O)[C@@H](C)O)C(C)C)[C@@H](C)O
notes: also called compound 92
B3: N^ε1-[(4S)-4-carboxy-4-[[(4S)-4-carboxy-4-(19-carboxynonadecanoylamino)butanoyl]amino]butanoyl]-[Arg17,Pro21,Pro27,Pro31,Pro34,Arg35]-h-amylin (peptide)
peptide: K([γGlu-γGlu-C20 diacid])CNTATCATQRLANFLRHSSPNFGAIPSSTPVGPRTY-NH2
modifications: disulfide 2-7; N-terminus assumed
SMILES: CC[C@H](C)[C@H](NC(=O)[C@H](C)NC(=O)CNC(=O)[C@H](Cc1ccccc1)NC(=O)[C@H](CC(N)=O)NC(=O)[C@@H]1CCCN1C(=O)[C@H](CO)NC(=O)[C@H](CO)NC(=O)[C@H](Cc1c[nH]cn1)NC(=O)[C@H](CCCNC(=N)N)NC(=O)[C@H](CC(C)C)NC(=O)[C@H](Cc1ccccc1)NC(=O)[C@H](CC(N)=O)NC(=O)[C@H](C)NC(=O)[C@H](CC(C)C)NC(=O)[C@H](CCCNC(=N)N)NC(=O)[C@H](CCC(N)=O)NC(=O)[C@@H](NC(=O)[C@H](C)NC(=O)[C@@H]1CSSC[C@H](NC(=O)[C@@H](N)CCCCNC(=O)CC[C@H](NC(=O)CC[C@H](NC(=O)CCCCCCCCCCCCCCCCCCC(=O)O)C(=O)O)C(=O)O)C(=O)N[C@@H](CC(N)=O)C(=O)N[C@@H]([C@@H](C)O)C(=O)N[C@@H](C)C(=O)N[C@@H]([C@@H](C)O)C(=O)N1)[C@@H](C)O)C(=O)N1CCC[C@H]1C(=O)N[C@@H](CO)C(=O)N[C@@H](CO)C(=O)N[C@H](C(=O)N1CCC[C@H]1C(=O)N[C@H](C(=O)NCC(=O)N1CCC[C@H]1C(=O)N[C@@H](CCCNC(=N)N)C(=O)N[C@H](C(=O)N[C@@H](Cc1ccc(O)cc1)C(N)=O)[C@@H](C)O)C(C)C)[C@@H](C)O
B4: N^ε1-[(4S)-4-carboxy-4-[[(4S)-4-carboxy-4-(19-carboxynonadecanoylamino)butanoyl]amino]butanoyl]-[Glu14,Arg17,Pro21,Pro27,Pro34,Phe37]-h-amylin (peptide)
peptide: K([γGlu-γGlu-C20 diacid])CNTATCATQRLAEFLRHSSPNFGAIPSSTNVGPNTF-NH2
modifications: disulfide 2-7; N-terminus assumed
SMILES: CC[C@H](C)[C@H](NC(=O)[C@H](C)NC(=O)CNC(=O)[C@H](Cc1ccccc1)NC(=O)[C@H](CC(N)=O)NC(=O)[C@@H]1CCCN1C(=O)[C@H](CO)NC(=O)[C@H](CO)NC(=O)[C@H](Cc1c[nH]cn1)NC(=O)[C@H](CCCNC(=N)N)NC(=O)[C@H](CC(C)C)NC(=O)[C@H](Cc1ccccc1)NC(=O)[C@H](CCC(=O)O)NC(=O)[C@H](C)NC(=O)[C@H](CC(C)C)NC(=O)[C@H](CCCNC(=N)N)NC(=O)[C@H](CCC(N)=O)NC(=O)[C@@H](NC(=O)[C@H](C)NC(=O)[C@@H]1CSSC[C@H](NC(=O)[C@@H](N)CCCCNC(=O)CC[C@H](NC(=O)CC[C@H](NC(=O)CCCCCCCCCCCCCCCCCCC(=O)O)C(=O)O)C(=O)O)C(=O)N[C@@H](CC(N)=O)C(=O)N[C@@H]([C@@H](C)O)C(=O)N[C@@H](C)C(=O)N[C@@H]([C@@H](C)O)C(=O)N1)[C@@H](C)O)C(=O)N1CCC[C@H]1C(=O)N[C@@H](CO)C(=O)N[C@@H](CO)C(=O)N[C@H](C(=O)N[C@@H](CC(N)=O)C(=O)N[C@H](C(=O)NCC(=O)N1CCC[C@H]1C(=O)N[C@@H](CC(N)=O)C(=O)N[C@H](C(=O)N[C@@H](Cc1ccccc1)C(N)=O)[C@@H](C)O)C(C)C)[C@@H](C)O
B5: N^ε1-[(4S)-4-carboxy-4-[[(4S)-4-carboxy-4-(19-carboxynonadecanoylamino)butanoyl]amino]butanoyl]-[Glu14,Arg17,Pro21,Pro27,Pro34,Glu35,Pro37]-h-amylin (peptide)
peptide: K([γGlu-γGlu-C20 diacid])CNTATCATQRLAEFLRHSSPNFGAIPSSTNVGPETP-NH2
modifications: disulfide 2-7; N-terminus assumed
SMILES: CC[C@H](C)[C@H](NC(=O)[C@H](C)NC(=O)CNC(=O)[C@H](Cc1ccccc1)NC(=O)[C@H](CC(N)=O)NC(=O)[C@@H]1CCCN1C(=O)[C@H](CO)NC(=O)[C@H](CO)NC(=O)[C@H](Cc1c[nH]cn1)NC(=O)[C@H](CCCNC(=N)N)NC(=O)[C@H](CC(C)C)NC(=O)[C@H](Cc1ccccc1)NC(=O)[C@H](CCC(=O)O)NC(=O)[C@H](C)NC(=O)[C@H](CC(C)C)NC(=O)[C@H](CCCNC(=N)N)NC(=O)[C@H](CCC(N)=O)NC(=O)[C@@H](NC(=O)[C@H](C)NC(=O)[C@@H]1CSSC[C@H](NC(=O)[C@@H](N)CCCCNC(=O)CC[C@H](NC(=O)CC[C@H](NC(=O)CCCCCCCCCCCCCCCCCCC(=O)O)C(=O)O)C(=O)O)C(=O)N[C@@H](CC(N)=O)C(=O)N[C@@H]([C@@H](C)O)C(=O)N[C@@H](C)C(=O)N[C@@H]([C@@H](C)O)C(=O)N1)[C@@H](C)O)C(=O)N1CCC[C@H]1C(=O)N[C@@H](CO)C(=O)N[C@@H](CO)C(=O)N[C@H](C(=O)N[C@@H](CC(N)=O)C(=O)N[C@H](C(=O)NCC(=O)N1CCC[C@H]1C(=O)N[C@@H](CCC(=O)O)C(=O)N[C@H](C(=O)N1CCC[C@H]1C(N)=O)[C@@H](C)O)C(C)C)[C@@H](C)O
B6: N^ε1-[(4S)-4-carboxy-4-[[(4S)-4-carboxy-4-(19-carboxynonadecanoylamino)butanoyl]amino]butanoyl]-[Glu14,Arg17,Pro21,Pro27,His34,Glu35]-h-amylin (peptide)
peptide: K([γGlu-γGlu-C20 diacid])CNTATCATQRLAEFLRHSSPNFGAIPSSTNVGHETY-NH2
modifications: disulfide 2-7; N-terminus assumed
SMILES: CC[C@H](C)[C@H](NC(=O)[C@H](C)NC(=O)CNC(=O)[C@H](Cc1ccccc1)NC(=O)[C@H](CC(N)=O)NC(=O)[C@@H]1CCCN1C(=O)[C@H](CO)NC(=O)[C@H](CO)NC(=O)[C@H](Cc1c[nH]cn1)NC(=O)[C@H](CCCNC(=N)N)NC(=O)[C@H](CC(C)C)NC(=O)[C@H](Cc1ccccc1)NC(=O)[C@H](CCC(=O)O)NC(=O)[C@H](C)NC(=O)[C@H](CC(C)C)NC(=O)[C@H](CCCNC(=N)N)NC(=O)[C@H](CCC(N)=O)NC(=O)[C@@H](NC(=O)[C@H](C)NC(=O)[C@@H]1CSSC[C@H](NC(=O)[C@@H](N)CCCCNC(=O)CC[C@H](NC(=O)CC[C@H](NC(=O)CCCCCCCCCCCCCCCCCCC(=O)O)C(=O)O)C(=O)O)C(=O)N[C@@H](CC(N)=O)C(=O)N[C@@H]([C@@H](C)O)C(=O)N[C@@H](C)C(=O)N[C@@H]([C@@H](C)O)C(=O)N1)[C@@H](C)O)C(=O)N1CCC[C@H]1C(=O)N[C@@H](CO)C(=O)N[C@@H](CO)C(=O)N[C@H](C(=O)N[C@@H](CC(N)=O)C(=O)N[C@H](C(=O)NCC(=O)N[C@@H](Cc1c[nH]cn1)C(=O)N[C@@H](CCC(=O)O)C(=O)N[C@H](C(=O)N[C@@H](Cc1ccc(O)cc1)C(N)=O)[C@@H](C)O)C(C)C)[C@@H](C)O

Numbered stars: 1 amine (or outer) side, 2 acyl side, 3 side chain; on linkers, the order of the positions; unused ones are H or OH. Bridge positions count the residues as written; N and C are the ends. Side chains are listed from the residue outwards. Ends that are not written are not given here. * marks the point of attachment. C20 diacid = O=C(O)CCCCCCCCCCCCCCCCCCC(=O)*; γGlu = O=C(O)[C@H](CCC(=O)[*:2])N[*:1]

This experiment addresses T1, human calcitonin receptor. Briefly: cell-based or functional assay.
Consider B1, for which the “hCTR funct. EC50 (pM)” value came to 5580 pM.
Next, K([γGlu-γGlu-C20 diacid])CNTATCATQRLADFLRHSSPNFGAIPSSTNVGPETY-NH2 (disulfide 2-7): 843 pM; B2: 2380 pM.
Regarding B3, the “hCTR funct. EC50 (pM)” value turned out to be 8660 pM.
The result for B4 reads 2140 pM; that for K([γGlu-C20 diacid])CNTATCATQRLAEFLRHSSPNFGAIPSSTNVGPHTY-NH2 (disulfide 2-7), 1450 pM.
Next, B5: 102 pM; B6: 7050 pM.
Take K([γGlu-γGlu-C20 diacid])CNTATCATQRLAEFLRHSSPNFGAIPSSTNVGPHTY-NH2 (disulfide 2-7 (inferred)): the “hCTR funct. EC50 (pM)” value is 2830 pM.
